The values below are quoted from earlier work in PMC10453832.

As a reminder, the Kd is the constant that tells how readily two partners part at equilibrium.

The target in the series is F-actin (Oryctolagus cuniculus) (UniProt P68135).

As to “β-III-spectrin ABD (from UniProt O15020)”, the Kd is 75 nM.
